Patent publication US20100247549A1 (US Dept. of Health and Human Services, published 2010)

T1: human Fcγ R IIB (human, UniProt P31994 46-217)
T1 sequence: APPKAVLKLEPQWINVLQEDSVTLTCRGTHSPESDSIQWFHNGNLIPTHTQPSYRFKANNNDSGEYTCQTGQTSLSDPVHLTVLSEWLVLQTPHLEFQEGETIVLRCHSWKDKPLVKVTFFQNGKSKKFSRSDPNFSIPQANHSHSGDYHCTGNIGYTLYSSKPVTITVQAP


Assays:
[1] = target: Envelope glycoprotein (E) of parental DENV-4 (C6/36) (dengue virus type 4, UniProt P09866 280-774)
purified human C1q = purified human C1q (human, UniProt P02745 23-245; P02746 28-253; P02747 29-245); assay: ELISA, IgG titrated against purified human C1q
human Fcγ R I = human Fcγ R I (human, UniProt P12314 16-288); assay: ELISA, IgG titrated against human Fcγ R I
human Fcγ R IIIB = human Fcγ R IIIB (human, UniProt O75015 17-200); assay: ELISA, IgG titrated against human Fcγ R IIIB
human Fcγ R IIB = target: T1, human Fcγ R IIB; assay: ELISA, IgG titrated against human Fcγ R IIB

Chain of purified human C1q (P02745 23-245 limits assumed, chain 1 of 3): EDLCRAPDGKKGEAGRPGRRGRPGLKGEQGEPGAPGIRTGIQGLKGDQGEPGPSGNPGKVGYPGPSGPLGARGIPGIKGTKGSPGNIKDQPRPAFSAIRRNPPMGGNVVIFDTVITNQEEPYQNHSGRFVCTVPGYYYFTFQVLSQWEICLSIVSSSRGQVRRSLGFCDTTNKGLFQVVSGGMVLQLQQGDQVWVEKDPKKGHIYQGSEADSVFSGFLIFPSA
Chain of purified human C1q (P02746 28-253 limits assumed, chain 2 of 3): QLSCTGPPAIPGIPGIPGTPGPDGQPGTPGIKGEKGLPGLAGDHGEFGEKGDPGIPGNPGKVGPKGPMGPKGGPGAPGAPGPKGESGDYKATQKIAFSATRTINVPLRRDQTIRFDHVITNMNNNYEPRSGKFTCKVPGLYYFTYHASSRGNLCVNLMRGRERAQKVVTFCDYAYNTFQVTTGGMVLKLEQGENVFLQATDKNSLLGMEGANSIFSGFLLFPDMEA
Chain of purified human C1q (P02747 29-245 limits assumed, chain 3 of 3): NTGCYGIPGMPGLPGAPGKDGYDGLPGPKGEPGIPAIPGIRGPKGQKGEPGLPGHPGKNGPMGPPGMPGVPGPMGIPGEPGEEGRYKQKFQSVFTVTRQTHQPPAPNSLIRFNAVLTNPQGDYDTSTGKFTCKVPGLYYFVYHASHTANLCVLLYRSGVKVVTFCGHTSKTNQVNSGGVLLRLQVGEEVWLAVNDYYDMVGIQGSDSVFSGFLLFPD
Chain of Envelope glycoprotein (E) of parental DENV-4 (C6/36) (P09866 280-774 limits assumed): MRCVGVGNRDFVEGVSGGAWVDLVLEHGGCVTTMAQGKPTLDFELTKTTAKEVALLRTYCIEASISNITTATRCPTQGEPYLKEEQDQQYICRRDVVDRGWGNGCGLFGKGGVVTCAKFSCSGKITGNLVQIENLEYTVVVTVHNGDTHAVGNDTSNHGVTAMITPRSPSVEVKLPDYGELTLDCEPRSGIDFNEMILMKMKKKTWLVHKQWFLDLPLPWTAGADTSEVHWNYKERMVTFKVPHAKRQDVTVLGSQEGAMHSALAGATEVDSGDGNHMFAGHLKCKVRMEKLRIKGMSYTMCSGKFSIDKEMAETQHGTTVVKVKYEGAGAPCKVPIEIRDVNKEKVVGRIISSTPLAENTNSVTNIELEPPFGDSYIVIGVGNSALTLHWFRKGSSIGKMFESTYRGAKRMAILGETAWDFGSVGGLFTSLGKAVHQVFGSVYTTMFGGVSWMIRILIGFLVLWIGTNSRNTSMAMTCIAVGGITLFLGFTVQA
Chain of human Fcγ R I (P12314 16-288 limits assumed): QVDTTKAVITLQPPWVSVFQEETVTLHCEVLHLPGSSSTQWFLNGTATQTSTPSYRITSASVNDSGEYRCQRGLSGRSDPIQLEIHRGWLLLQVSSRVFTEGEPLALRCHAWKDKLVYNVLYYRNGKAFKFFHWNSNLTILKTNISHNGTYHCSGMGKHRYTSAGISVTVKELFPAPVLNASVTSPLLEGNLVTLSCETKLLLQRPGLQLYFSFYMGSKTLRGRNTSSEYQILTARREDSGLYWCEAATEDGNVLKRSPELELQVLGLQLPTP
Chain of human Fcγ R IIIB (O75015 17-200 limits assumed): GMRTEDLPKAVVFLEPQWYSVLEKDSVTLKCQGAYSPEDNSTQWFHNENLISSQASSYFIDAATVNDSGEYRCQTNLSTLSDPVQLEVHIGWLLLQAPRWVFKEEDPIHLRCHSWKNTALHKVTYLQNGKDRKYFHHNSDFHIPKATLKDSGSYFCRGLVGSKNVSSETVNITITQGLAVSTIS

Binder	Kd [1] [nM]	binding result (purified human C1q)	EC50 (read off the curve) (human Fcγ R I) [µg/mL]	binding result (human Fcγ R IIIB)	binding result (human Fcγ R IIB)
Chimpanzee antibody Fab 5H2 (Fab, V domains shown) VH: EVQLLESGPGLVKPSETLSLTCTVSGGSISDFYWSWLRQSPGKGLEWIGYAHSRVSAYYNPSLKSRVTISVDTSKNQLSLRLSAVTAADTALYYCARQGTGTTGVSEDPFDLWGQGTKVIVSL VL: ELQMTQSPSSLSASVGDRVTITCRASQDISIRLNWYQQKPGKAPKLLIYDASTLESGVPSRFSGSGSGTDFTLTISSLQPEDFATYYCQQFNSYPLTFGGGTKVEIKR	0.21				
Humanized IgG 5H2 ΔD (IgG1 5H2 with a 9-amino-acid deletion, positions 231-239, at the N-terminus of the CH2 domain) (antibody, also called IgG1 5H2 ΔD; IgG 5H2D; copies: 2 + 2) heavy: EVQLLESGPGLVKPSETLSLTCTVSGGSISDFYWSWLRQSPGKGLEWIGYAHSRVSAYYNPSLKSRVTISVDTSKNQLSLRLSAVTAADTALYYCARQGTGTTGVSEDFFDLWGQGTKVIVSLASTKGPSVFPLAPSSKSTSGGTAALGCLVKDYFPEPVTVSWNSGALTSGVHTFPAVLQSSGLYSLSSVVTVPSSSLGTQTYICNVDHKPSNTKVDKKVEPKSCDKTHTCPPCPVFLFPPKPKDTLMISRTPEVTCVVVDVSHEDPEVKFNWYVDGVEVHNAKTKPREEQYNSTYRVVSVLTVLHQDWLNGKEYKCKVSNKALPAPIEKTISKAKGQPREPQVYTLPPSRDELTKNQVSLTCLVKGFYPSDIAVEWESNGQPENNYKTTPPVLDSDGSFFLYSKLTVDKSRWQQGNVFSCSVMHEALHNHYTQKSLSLSPGK light: not shown	0.14	no binding			
Humanized IgG 1A5 (IgG1), full-length (antibody, also called IgG 1A5 WT; MAb IgG 1A5; copies: 2 + 2) heavy: not shown light: ELQMTQSPSSVSASVGDTVTIACRASQSITNYLSWYQQKPGKAPKLLIYHASTLQSGIPSRFSGSGSGTDFTLTISSLQPDDFATYYCHYGYGTHTFGQGTKLEIKRTVAAPSVFIFPPSDEQLKSGTASVVCLLNNFYPREAKVQWKVDNALQSGNSQESVTEQDSKDNTYSLSSTLTLSKADYEKHKVYACEVTHQGLSSPVTKSFN		binds	~0.7	binds	binds
IgG 1A5 ΔA (replacement amino acids at 327, 330 and 331 from the Fc of IgG4) (antibody) chain 1: EVQLLESGGGLVQPGGSRRLSCAASGFTISDNVMHWVRQAPGKGLEWVALIYSADTTHYADSVKGRFTISRDNSKNTLYLQMDSLRPEDTAVYYCAREYCTGDTCFAHFDYWGQGTLVSVSSASTKGPSVFPLAPSSKSTSGGTAALGCLVKDYFPEPVTVSWNSGALTSGVHTFPAVLQSSGLYSLSSVVTVPSSSLGTQTYICNVDHKPSNTKVDKKVEPKSCDKTHTCPPCPAPELLGGPSVFLFPPKPKDTLMISRTPEVTCVVVDVSHEDPEVKFNWYVDGVEVHNAKTKPREEQYNSTYRVVSVLTVLHQDWLNGKEYKCKVSNKGLPSSIEKTISKAKGQPREPQVYTLPPSRDELTKNQVSLTCLVKGFYPSDIAVEWESNGQPENNYKTTPPVLDSDGSFFLYSKLTVDKSRWQQGNVFSCSVMHEALHNHYTQKSLSLSPGK chain 2: ELQMTQSPSSVSASVGDTVTIACRASQSITNYLSWYQQKPGKAPKLLIYHASTLQSGIPSRFSGSGSGTDFTLTISSLQPDDFATYYCHYGYGTHTFGQGTKLEIKRTVAAPSVFIFPPSDEQLKSGTASVVCLLNNFYPREAKVQWKVDNALQSGNSQESVTEQDSKDNTYSLSSTLTLSKADYEKHKVYACEVTHQGLSSPVTKSFN			~3		
IgG 1A5 ΔD (IgG 1A5 with the 9-amino-acid deletion, amino acids 231-239, in the CH2 domain) (antibody, also called variant ΔD; copies: 2 + 2) heavy: EVQLLESGGGLVQPGGSRRLSCAASGFTISDNVMHWVRQAPGKGLEWVALIYSADTTHYADSVKGRFTISRDNSKNTLYLQMDSLRPEDTAVYYCAREYCTGDTCFAHFDYWGQGTLVSVSSASTKGPSVFPLAPSSKSTSGGTAALGCLVKDYFPEPVTVSWNSGALTSGVHTFPAVLQSSGLYSLSSVVTVPSSSLGTQTYICNVDHKPSNTKVDKKVEPKSCDKTHTCPPCPVFLFPPKPKDTLMISRTPEVTCVVVDVSHEDPEVKFNWYVDGVEVHNAKTKPREEQYNSTYRVVSVLTVLHQDWLNGKEYKCKVSNKALPAPIEKTISKAKGQPREPQVYTLPPSRDELTKNQVSLTCLVKGFYPSDIAVEWESNGQPENNYKTTPPVLDSDGSFFLYSKLTVDKSRWQQGNVFSCSVMHEALHNHYTQKSLSLSPGK light: ELQMTQSPSSVSASVGDTVTIACRASQSITNYLSWYQQKPGKAPKLLIYHASTLQSGIPSRFSGSGSGTDFTLTISSLQPDDFATYYCHYGYGTHTFGQGTKLEIKRTVAAPSVFIFPPSDEQLKSGTASVVCLLNNFYPREAKVQWKVDNALQSGNSQESVTEQDSKDNTYSLSSTLTLSKADYEKHKVYACEVTHQGLSSPVTKSFN		no binding			
